The source of these data is patent US20030133971.

The test system of the data set is recombinant SDI-1 protein.

In the case of CDK2 (kinase assays of Example 11), the “phosphorylation of histone H1” value was “The recombinant SDI-1 protein of the present invention inhibits the phosphorylation of histone H1 by CDK2”.
